Measured values from the DeepSol protein solubility set.

Assay: soluble on expression in E. coli; label from the status in PepcDB or PDB records

| Sequence | soluble on expression in E. coli |
| --- | --- |
| MGSDKIHHHHHHMDTAGMISAVQEILANRSLDGWEITAASSHILSIEVKEQKVDTFKCSAPLGVSVRVLKNGGMGFSFSTSMAPEDLARMVDNALVGAESQTPDADHGFPDPPAVYPDVPGLFDDGLAAVAEEAKIAVALDLERLTLAADPRVRKVRKATYGDSMVETMVVNSRGVSCRYRGTSVSASVTAVAEENGQSQMGWDFDFSSRFDGISVERIVAGAVAKATGLLGAATVPTMRCPAVLDTYVATEILEVLAPAFLAESVQKGKSLLAGKRGEMIVAPLLTIRDDGTLPGGMGTAPFDAEGVPKRNTVLVQNGRLDSYLYDTLRARKEGVAPTGNAIRSGIKSPPHMGVSNLFIENGTEAPEALLAGITRGVLLTEVMGMHTANTISGDFSVGAAGFLVEDGRVTRPVKGIAIAGNILELFRGVEAVGNDLRFYGTVGSPSLRIAALDVSGE | not soluble |
| LTEHLIDSIRTNRTENKIHLKPEPFNIGPYTKLSINKRDNYGTIKIKWFDRVPFTEYKSFLDSSIHNLNTRQITNLIIDLRWNIGGPREYPIYLLSKILNQPFRYCDSLITTKFTFEEKIAFDSTKVFVPMDNGFYKVVKNARGLGQQNPSNVTFTGNIYLLVDGQSNSSSAQVASLIYQNRRGTIIGEEPGGLFEGGTGEHHYYLTLTNSRIKVQIPRYRIVLHVDRSKFHGHGVKPDYEVKPDITDMIQGKDPVMEFTIGLIKK | not soluble |
| MGSDKIHHHHHHMSLQFDHETLGQRVLFGSGEAAQNLAAEISRLDAKNVMVVAGDFELPMARQVAADIDVKVWHSNVVMHVPIETAEEARSVAKENDIDVVVCVGGGSTTGLAKAIAMTTALPIIAVPTTYAGSEATNVWGLTEAARKTTGVDNKVLPVTVIYDSALTMSLPVEMSVASGLNGLAHCIDSLWGPKADPINAAMAAEGIRALSAGLPKIVADAQDVDGRDEALYGAYLAAVSFASAGSGLHHKICHVLGGTFNLPHAQTHATVLPYVLAFNAPYAPQAEQRAAAAFGSATALEGLQQLRAQVGAPQRLSDYGFTAAGIPEAVEIILEKVPANNPRTVTEENLTALLTTALNGDDPATLN | not soluble |
| MSLKYKAIAAGLLAAHLLAHPISSLAETKKFPDVSDSAWSKDAIYYLVERNVINGMPDGNFMPYGNLTRAQAAKIIATAIGAKVDPNAKPSYNDAKNSWAASFIAAMEKENIIKGREPGVFDPEGKVTRAEMAAMLVRAYNLKSKVTGPVPTKFADLENHWGKEEVNILVELKLSLGTENGWKPNDSITREQAAQLTAQTDKFSKNSDRPVEEGHHHHHH | soluble |
| MAHHHHHHMDKQAERGQSAGPVKTPQGTQPPAHNYTYHTNAAQRAVYDYLKNVKPIPELAEPKTYKTYEEASVEAVLYPIIEKHQVIMVAGAFFGDEGKGKTVNAVANHPGCTFIARVNSGENAGHTVYDDAGRKFVFNLAPSGLLSKGKRNYVGPECVMDPISFMENEVKQLIEANVPYKEQLFIGNVSIVTPYHKLLDLLASAPNSSTLKGMAPIHASKVTKRGIRLDHIFNDQSVLRSRLRKDIDTYFGFLKVKGLSDADVLRRCEKENGDGVVRVPPYVVEFVQAEDKVEYLVKLYMDRVRNNKNFPARCDVAHELRSALSRGEKVMLEGPQSYWLSNAREKFWESTTSADTTASGLLATAQYNFQLYSSVVINVHKAPGSSRVGVGANPSSFVAQDYFSATGVKTLRDLPENMCVDFDSIQKLFFTKAFHPETKEYNGIWEPLEFEDSTGKYNIGVAMAVASSRQHGECGAVTKKPRVCGFFDCVLQYEVNAVQGPYLSISALDRGDDYDKLGVTIAYVYYNGKNDEVLNINGREYKNGDIIKAGEAVPGEVALYYCHPIVKLINGWKQTPIAASKRKPGDPLPRGVCEFLSTVEYFTKAKIISIGNGPRGKDIIYIKQ | not soluble |
| PFRLHATYDESISRMLDVFEKVDRDIPFNGLPWFFDHAETISPKNIERVRALGGGIAIQDRMAFQGEYFVERYGAKAAEMTPPIQRMLAEGIPVGAGTDATRVSSYNPWTSLYWMVSGRTVGGLELYPQGLSRDTALELYTHGSAWFSSEQGKKGQIKVGQLADLVALSADYFSVEEEAIKWIESLLTVVDGKVVHAAGDFDQLAPPSLPVTPDWSPVAKVPGHWKPGAPLQNQVHQCSGPCAVHAHGHQKARMSNVPVSDFQGFWGAFGCSCFA | not soluble |
| MEDIIFGKRSNVFDVNPENTVFVLIAGTSEVSTVPGITSAGATPELTRLTPAIDSEIIGEGKCLSSKDPPMTPEGIPTPAIVTKAILSLTNIRYIIVNGGFYAKPKTPFIETGLKPSNNPAVKTAIEDLDAAIHAGEHIGRLLDGVFENIILAESVPGGTTTAYAVLKAIGINAKTSSSMKEDPFSIKEKIAEMSFRRKLEKSPLGAVKEYGDNMMAVSLGISSSVKRSKIIFGGGTQMATVMYLDRLINGMRDRYISTTGWVYYHRTELFSDLGLSDYLAVSAMDFSGMKHPGLRYYQYGHVREGTGMGAAFLLARLMNFEAEAIYKSVDDFYEQFI | not soluble |
| MGSDKIHHHHHHMRLLFSTMFLYEYSTDMIAKAVNLAGYDGVEFWPETPYFWVDRAMEKLECLRDFDNAIHVPVLDLNPVSVNPDICNLTLRETLYSIALAAKIKAKPVTVHAGRRSAAREPVWADYLSLSRYLRISSRYAKIKGVTVGLENSENSINNLCKTADEVRKFAEEYDVMVTLDIKHALLNGGVEEFLELFGRICNVHVSYYDEKMRHVQPSRGKEVGDALKELAELGYDGPLTVELDDLGIGNLDFSKKVEILRKERRFVEKFFKR | not soluble |
| MGEKAFKRPNVLSTIGAFGYRAAVFRNVLEAAKLDPSIYYTFISGPEIDPEQFSKVPENVEFTGFTENPFPYYKGSDLVITAGGHGTIMESLAFGLPILSFPDEKHAEQENNASVLEEAGYGKRMSYLTPPEVILACIREIFEDENYSKKTRRLMELAEVLEHHHHHH | soluble |
| DVQLVESGGGSVQAGGSLRLSCAASGSTDSIEYMTWFRQAPGKAREGVAALYTHTGNTYYTDSVKGRFTISQDKAKNMAYLRMDSVKSEDTAIYTCGATRKYVPVRFALDQSSYDYWGQGTQVTVSSRGRHHHHHH | soluble |
| MESKKRSSDKKSTEVDSMSDKESLYVSASDQPPAEITIKLEKDTKRKITIISEVENPKRARRGSADLRRQAIVNSAIRSAQSTASSRSRSRSRSRSRSTMNQQIRLARTRSASGGKLRRSRSARRRSPSSSASRSRSRSTSRTRAQSIPIRYRDRPEKIEKPIQPLPPLRLPTHLTKKSSVGSKKLPPPDCINLPSPLFILTEQQVIGASEKKTVQFVTKVLLTSKKLSLDDRKLLFAEMVEAEYVGTSRSSTDLNKSSDDEPEEEFATKIHYSSKGIYIHTVQNVRKIRSGKTSSITEEKSYANICKTKISGDHGKSTEGFLNVQCSETISVVDQKYIRSEEFKIGLTGVNVSGNVSINSSKTTFDPTKTITFSEDLMFDSKNIGITIRHSSVAEMKEMWHHEMGSFGEETSEYRELKFFFDEKKKDDNKTVGKSVVSILQGTKPSAPPASTSSSSKNSSSINSPKTPNISGSSRRSRSRAKRHKALQKRDSKTNRTPSPDRQSCKKDARPDQDPIKLSEIKVSEHVDSTGNETFYQSFPKATSTPKSPASSLNSSVLESKVKNSMQKTPDEGPSRRGAMSIRERSVSRNGDNEIDLDKSLSLKKPSASKNLASLLEKKEEARKTDVTSSMISSKPPTSPGTSVYMYNTGSANSTFMSAKDLHKERVAASTGPRSASKSPKGTLRVKETKVIREVRQEDGKPPEISEKKEETVKEEKVNLSERLRARSRASSPATPTLKRTFNQTDESNIVTLSAVKETHQTLEMTPIKVNSETVPSTSYGQRAFPESVQLDMLIDKKRLVLNVNFMLLAEKHPEVEILGFTFKGQKLWEKSSEWNLTSANTTSHTKTIARQASNILGDEEKKDEEQK | not soluble |
| MGSDKIHHHHHHMNKAERQNLIITAIQQNKKMTALELAKYCNVSKRTILRDIDDLENQGVKIYAHYGKNGGYQIQQAQSKIALNLSETQLSALFLVLNESQSYSTLPYKSEINAIIKQCLSLPQTRLRKLLKRMDFYIKFDDTQHMTLPMLFSDILIYCTERNVMLVDHRVDDNIKAENVIFIGLLCKHGHWHAVIYDIAQDKTAELEIENIIDISYSFGKTIQTRDISIDNYHQFLNPIDS | not soluble |
| SAFQAAAARLGAPVSHDFCAISLSDLMTPWEVIEKRIEAAASADFVTAVYNPRSRDRYWQIHRFRELFLRHRSPSTPVGIVRNVTRKDESVVLTTLGEFDPDSLDMFTMMLVGNSTTF | not soluble |
| MTSPITLDALKVLDAIERKKSFAAAADELFRVPSAISYTVNKLEDDLGIALFDRSKRKAELTSVGIMLVEQGRLILKATDELTHMAKQSAEGWELELRICIDSILLFQPIYTLIAQFQQEYPWINIRVTEEVFGGTWDALVAGRSDLIIGATGEPYNSDFSLYKLGNVDFVFVVAKDHALIKEQQPLSNEIIKKYPSVVVADSSRNLPGRSAGLLDGQSRITVSSIEKKIEAQLLGLGVGFLPIHRIKSQLESGQLVILALETTENRNSELCMAWRNDNQGKALAWFVSNIQQMAVKLI | not soluble |
| MKDLIIIGAGQAGLTMGYYLKQEGYNFLLLEAGKRVGDSWRNRYDSLQLFTPRSYSSLPGMALIGEKNEFPYKDEIATYLEEYARHFQLPVQLQTEVLKIKKEKEIFELHTPTEILQTKKVIIASGAFQQPFIPSVSANLSSHIFQIHSSQYKSPSQIPKGKVLVVGGGNSGMQIAVELAKTHEVTVSISHPLTFLPLQLFGKSIFNLLEKVGLLYAEINTKRGRWFQKRKDPIFGFEGKKLIRNGAIKLQEKVVSASRNNIMFQNGDTYSAESIIWSTGFVQNYNWIEIEQAVNEKGFPNHIKGISPVKGLYYIGLPLEHHHHHH | not soluble |
| AITGATGHLGQQIVAAMRPLVATTELYLGVHTLSKAQVYQQQGLHIAAIDYQQPEQLRAFFQDSDVLIYIPSKSHDSYSRVQEFENVLAAVQQANVHHFLVMGFIADQVNNPFALSAFYGYVPRRLAGSDINYTIVRNALYADPLVPYLPELIERHNVVYPMADQALSFISQADSAAAFAKVATTPDLLQRGRI | not soluble |
| MNTIPLHTILKLMAHPERMAILIQLLDSERNIAELAKSLSLPATAVSNHLNRLRVEGLVDFTRYHRIIEYRLVSEEAAAILHTVRDLENKRVA | not soluble |
| MGSDKIHHHHHHMDSSMPSTPHASAYPIGKPGQVWGEEEKSLWLNKQVIQRSYAEQVLALILDPASISANTADPMETTATQSNAHPEITSALELVHYNTLAYNTLHQGASDYPVYLFKSRHWDETKPNVLITGGVHGYETSGVQGAIRFLRTKAQHYCQHANLIIVPCLSPWGYETINRWNPHAIDPNRSFVHDTAPHDTAMTQAKAQASKVQLSDVQEAHALMAALGELAVNFSLHIDLHETTDSDNAEFRPALAARDGTSYDNWDIPDGFYLVGDTLKPQAEFQKAVINAVNAITHIAPAGEHARLIGVPIAQFGVINYPTKALGLCAGMTDATYCTTTEVYPDSPLVDDENCILAQVAAITGALDYVIKNR | not soluble |
| MLTLENQIKEEREQDNSESPNGRTSPLVSQNNEQGSTLRDLLTTTAGKLRVGSTDAGIAFAPVYAMGAPSSKSGRTMPNILDDIIASVVENKIPPSKTSKINVKPELKEEPEESIISAVDENNKLYSDIPHSWICEKHILWLRIIRIAVIGSFSKNVGNKDSLQWFLVCIRKLEHHHHHH | not soluble |
